Assay results: patent US20260176659A1, “IMPROVED METHOD FOR THE PRODUCTION OF NATURAL VANILLIN” (BASE SE, priority 2022, published 2026)
Several values for one entry are separate records, joined by “and”; a condition that tells them apart may be missing. Identical values can stand only once. Values belong to the molecule of their own block, whether it stands above or below them.

Key:
Format in all cases: biochemical
[1] = Spectrophotometric enzymatic assay: cleaving activity, production of vanillin from coniferyl alcohol at 349 nm; conditions: for Screening of putative COs: formation of 3a upon 2a cleavage (hit or inactive): spectrophotometric assay
Procedure: Stock solution 200× of coniferyl alcohol (90 mg) was prepared in ethanol (5 mL) and stored at −20° C. From this, a new stock solution 20× of coniferyl alcohol (10 mM) was freshly prepared by 1:10 dilution in Glycine-NaOH (50 mM, pH 9.0). A cuvette containing 0.750 mL Glycine-NaOH (50 mM, pH 9.0) and 0.05 mL of the substrate 20× stock was pre-warmed at 25° C. for 1.5 mins. Then, the reaction was initiated by the addition of 0.2 mL of the enzyme sample. The cleaving […] activity was measured spectrophotometrically following the production of vanillin at 349 nm (ε349=26.7 mM^−1cm^−1 experimentally determined). One unit of activity (U) is defined as the amount of enzyme required to produce 1 μmol of vanillin per min. Agilent Cary 60 UV-Vis Spectrophotometer was used for all the measurements.
Searching for alternative novel alkene cleavage oxygenases (COs) catalysing the formation of vanillin from coniferyl alcohol was performed. A set of 27 sequences and 10 COs from different branches of the phylogenetic tree were selected, named CO-02-11. Two additional enzymes were included, which are located in different clusters of the phylogenetic tree: Lignostillbene dioxygenase from Pseudomonas brassicaceraum (PbLSD, PDB: 5V2D) and aromatic dioxygenase (Ado, CO-01) from Thermothelomyces thermophilus (GenBank ID: XP_003665585). The proteins were recombinantly expressed in E. coli BL21(DE3), following the same protocol developed for IECO. […] Putative COs were screened by spectrophotometric assay, monitoring the formation of 3a upon 2a cleavage. From a set of twelve COs, four positive hits, namely CO-01, CO-03, CO-06 and CO-07 were found. Positive variants were tested in the one pot cascade and compared them with IECO In agreement with the spectrophotometric screening, all four COs converted eugenol 1a to vanillin 3a (Table 8). The first step of the cascade is efficiently performed by EUGO, and the substrate is completely consumed. […] Overall, 70±3% conversion of 1a to vanillin 3a was achieved.

[2] = Bioconversion of eugenol to vanillin: one-pot concurrent cascade EUGO + alkene cleavage oxygenase (5 mM scale); conditions: for Reaction composition after 24 hours 1a (%) / Reaction composition after 24 hours 2a (%) / Reaction composition after 24 hours 3a (%) / Reaction composition after 24 hours 5a (%): Table 8a, CO-XX FD-CFE 1 mg/mL; for Reaction composition after 24 hours 1a (%) / Reaction composition after 24 hours 2a (%) / Reaction composition after 24 hours 3a (%) / Reaction composition after 24 hours 5a (%) / Product distribution after 24 hours 2a (%) / Product distribution after 24 hours 3a (%) / Product distribution after 24 hours 5a (%): EUGO FD-CFE 1 mg/mL, catalase 10 mg/mL, eugenol 5 mM; for Product distribution after 24 hours 2a (%) / Product distribution after 24 hours 3a (%) / Product distribution after 24 hours 5a (%): Table 8b, CO-0X FD-CFE 1 mg/mL; for Conversion of 1a to 3a (%) / Reaction composition at 24 hours (%) 1a / Reaction composition at 24 hours (%) 2a / Reaction composition at 24 hours (%) 3a / Reaction composition at 24 hours (%) 5a: replicates of concurrent cascade with EUGO, 5 mM 1a, SD of four experiments; for Conversion of 1a to 3a (%): 24 h
Procedure: Stock solutions of eugenol (100 mM) were prepared in ethanol or DMSO and stored at −20° C. Unless otherwise stated, the reaction mixtures (0.5 mL) were set up in 1.5 mL glass vials as follows: freeze-dried cell free extract of IECO/CO-XX (3 mg) and EUGO (0.5 mg) were dissolved in the reaction buffer (50 mM glycine-NaOH pH 9.0) containing sodium ascorbate (1 mM), FeSO4 (1 mM) and bovine liver catalase (5 mg, Sigma Aldrich C40). The reaction was initiated by the addition of 0.025 mL eugenol stock (final concentration 5 mM), then incubated at 30° C. and 120 rpm overnight (rotary shaker). The final content of cosolvent was 5% v/v. To improve oxygenation, the vials were placed horizontally. At certain time points, samples (0.2 mL) were quenched with methanol (0.4 mL) and the mixture was centrifuged at 20238 g for 5-10 mins. Finally, the supernatant was analysed by HPLC.
EUGO (0.5 mg CFE), CO-25 (3 mg CFE) and catalase (5 mg, Sigma product #C40) were dissolved in 50 mM Glycine-NaOH pH 9.0 or Tris-HCl pH 8.0 together with FeSO4 (1 mM) and sodium ascorbate (1 mM). Note that the buffer content of the freeze-dried biocatalyst prep was not considered for the assembling of the reaction. The reaction was started by the addition of 5 mM eugenol from a 20× stock in ethanol. The reactions—performed in glass vials—were then incubated at 30° C. and 120 rpm (25 mm shaker). Finally, samples of the reaction mixture were diluted with MeOH and analyzed by HPLC at 280 and 340 nm.

[3] = CO-03 activity in presence of eugenol
Procedure: Stock solutions of coniferyl alcohol (250 mM), eugenol (0-2 M) were prepared in ethanol and stored at −20° C. Unless otherwise specified, the reaction mixtures (0.5 mL) were set up in 1.5 mL glass vials as follows: CO-03 (freeze-dried CFE 5-10 mg/mL) was dissolved in buffer (Glycine-NaOH 50 mM, pH 9.0 or Tris-HCl 50 mM, pH 8.0) with sodium ascorbate (1 mM), FeSO4 (1 mM), bovine liver catalase (Sigma C40, 10 mg/mL) and eugenol (0-100 mM). The final content of ethanol was 5-7% v/v. The reaction was initiated by the addition of coniferyl alcohol (5 mM), and then incubated for 4 hours at 30° C. and 120 rpm (rotary shaker). To improve the oxygenation, the vials were placed horizontally.

[4] = cascade with EUGO, pH 8.0 and pH 9.0

Reaction composition after 24 hours 1a (%) ([2]; pH 8.0): 51%
Reaction composition after 24 hours 2a (%) ([2]; pH 8.0): 79%
Reaction composition after 24 hours 3a (%) ([2]; pH 8.0): 5%
Reaction composition after 24 hours 5a (%) ([2]; pH 8.0): 16%
Reaction composition after 24 hours 1a (%) ([2]; pH 9.0): ≤1%
Reaction composition after 24 hours 2a (%) ([2]; pH 9.0): 71%
Reaction composition after 24 hours 3a (%) ([2]; pH 9.0): 6%
Reaction composition after 24 hours 5a (%) ([2]; pH 9.0): 23%
B1: CO-06: alkene cleavage oxygenase, Novosphingobium sp., SEQ ID NO: 38 (protein, listed as Novosphingobium sp.)
chain: MNIRFPNNDFTSFEAPMRAEIDLKGLEVIQGEVPRQLSGGFFRLIGDRKWPAFVENDIFMLGEDGMASCFYFKDGQVDFKMRYVRTPRFVAEEKAGRALFGHYRNPFSDDPSVAGLSRGTANVTVLVHAGKMLALKEDSPAIELDPFTLETIGEYDWGGVVTAKAITAHPKIDPKTGELVFFGYCAAGPATRDIAYYEADAEGRIIHETWFEAPYTCMVHDIMVTENYVVFPITPLRHELEWIERNEPAFKWDPSEDVYLGVLPRKGKGEQVRWFKGPNQCHGHTVGAFDDGRFIYADNTFSKRSFFHFFPNTDGSEFNPADAMPFIKRLVIDMESNDDSFTEQQMFGYPCELPRIDTRFETMPYNFVTMNLLDVPEQERIGMGFQWVATMDINGQKPAKIYYAGHDCSIGEPQFVPRSDDAAEGDGYILTVVGKHREMRSELLILDAGDITAPPIATVALPFRLRSTGHGYWYGTRQLRGETNIIGAW
Screening of putative COs: formation of 3a upon 2a cleavage (hit or inactive) [1]: positive hits

Reaction composition after 24 hours 1a (%) ([2]; pH 8.0): ≤1%
Reaction composition after 24 hours 2a (%) ([2]; pH 8.0): 14%
Reaction composition after 24 hours 3a (%) ([2]; pH 8.0): 78%
Reaction composition after 24 hours 5a (%) ([2]; pH 8.0): 8%
Reaction composition after 24 hours 1a (%) ([2]; pH 9.0): ≤1%
Reaction composition after 24 hours 2a (%) ([2]; pH 9.0): 8%
Reaction composition after 24 hours 3a (%) ([2]; pH 9.0): 81%
Reaction composition after 24 hours 5a (%) ([2]; pH 9.0): 11%
Product distribution after 24 hours 2a (%) ([2]; pH 8.0): 19.6%
Product distribution after 24 hours 3a (%) ([2]; pH 8.0): 72.0%
Product distribution after 24 hours 5a (%) ([2]; pH 8.0): 8.4%
Product distribution after 24 hours 2a (%) ([2]; pH 9.0): 11.9%
Product distribution after 24 hours 3a (%) ([2]; pH 9.0): 74.9%
Product distribution after 24 hours 5a (%) ([2]; pH 9.0): 13.2%
amount of 3a in reaction mixture [2, 4]: 78-81%
Reaction composition at 24 hours (%) 1a ([2]; pH 8.0): 1≤ %
Reaction composition at 24 hours (%) 2a ([2]; pH 8.0): 14 ± 3%
Reaction composition at 24 hours (%) 3a ([2]; pH 8.0): 80 ± 2%
Reaction composition at 24 hours (%) 5a ([2]; pH 8.0): 9 ± 1%
Reaction composition at 24 hours (%) 1a ([2]; pH 9.0): 1≤ %
Reaction composition at 24 hours (%) 2a ([2]; pH 9.0): 7 ± 2%
Reaction composition at 24 hours (%) 3a ([2]; pH 9.0): 83 ± 3%
Reaction composition at 24 hours (%) 5a ([2]; pH 9.0): 10 ± 1%
B2: CO-03: alkene cleavage oxygenase from Sphingomonadales bacterium, SEQ ID NO: 30 (protein, listed as Sphingomonadales bacterium)
chain: MSLFNRNHPVFSGGNAPVRIETDAICLETDGALPDELKGSYFRLTADPQFPPRLRPVLVEADGHVGAFHFRDNGQVDYVGKWVRTERFLRERAARRALFGTYRNRFTDEESVLDSDRTTANTAFMFHHHKFFALKEDGLPYQLDPETLDTIGRYDFGGTVSAKSLSAHPKVDSRTGELITHSGQAKGEGTPDIAYYVFDKNGTKTVERWFEAPYSSIVHDIAITQDWVVLPIMPAVVEEERLRAGGATYWWKPELGNHIAVFRRDGTGDVRWFRTKATYAFHVVNSYQDGDRLIIDVMDAEEFPMWWPRPEQVAALRSGEIKRDKFVAQLTRWTIDLAGDSDDIERELLHPWEAEMPRIDDRFAGQPYRYAVYGVDDPSFPLAHGLAELGVNHNSVGWWDHQTRTLTSWYTGPNSSVGEPVFTPRSPDAPEGDGFILAVVQRLAEQRSELVVIDTRDVAAGPIASVHAPHRLKNAIHNLWIDQEQLNEGGEKA
Specific Activity (mU/mg of FD-CFE) ([1]; freeze-dried cell free extract incl. buffer salts, vanillin from coniferyl alcohol): 7-10 mU/mg
Screening of putative COs: formation of 3a upon 2a cleavage (hit or inactive) [1]: positive hits
cleaving activity retained ([3]; 50 mM 1a, increased biocatalyst amount and modified reaction buffer): 49%
Residual activity ([3]; at 50 mM 1a): ≤ 10%
remaining 2 and its oxidation product 5a in the reaction mixture [2, 4]: ~20%
Conversion of 1a to 3a (%) ([2]; pH 8.0): 70 ± 3%
Conversion of 1a to 3a (%) ([2]; pH 9.0): 70 ± 3%
overall conversion of 1a to vanillin 3a in the 2-step cascade ([2]; with EUGO, 5 mM substrate concentration): 70±3% and 70%

Reaction composition after 24 hours 1a (%) ([2]; pH 8.0): 51%
Reaction composition after 24 hours 2a (%) ([2]; pH 8.0): 61%
Reaction composition after 24 hours 3a (%) ([2]; pH 8.0): 21%
Reaction composition after 24 hours 5a (%) ([2]; pH 8.0): 18%
Reaction composition after 24 hours 1a (%) ([2]; pH 9.0): 51%
Reaction composition after 24 hours 2a (%) ([2]; pH 9.0): 50%
Reaction composition after 24 hours 3a (%) ([2]; pH 9.0): 27%
Reaction composition after 24 hours 5a (%) ([2]; pH 9.0): 23%
B3: CO-07: alkene cleavage oxygenase, Thermopolyspora flexuosa, SEQ ID NO: 40 (protein, listed as Thermopolyspora flexuosa)
chain: MVWFPPPKDPFDAPMRVEADIRGVQVTQGEVPEHLDGTYYRCVSDRQWPSYVENDLELFNSDGMIISFRFHKGRVDFKSRYVRTPRFVAEEKAGRALFGAYRNPFDDDPSVAGISRGLANTNVFFHGGKLYASKEDSPPILIDPDTLETIGEYDFEGALTSRTATAHPKFDPVTGEMVFFGYEAKGPGTPDIAYYEADPSGRIIHEAWLEAPYTSMVHDWAVTQNFVIFPIIPLRSDIEWIKKGQSYFQWDPYEDVYLGVMPRKGTAKDLRWYRGSNRFASHIMGAYDDGRYVYIDTPVGQTNYFPWFPDITGAPYDPERSKGYLSRWTIDTQGESDGFTETRLSDLPGEFPRMDDRQETLPYHWGIMLLTDVPGRNAPGGGFRWLMGIDLKTGRKQIYYPGDHCTLGEAIFVPAAPDAPPGVGYVLTVVARRKEMRSDLVLLDAQRLDGEPVCTLSLPMRIRMGVHGNWVSAAELAGRTD
Screening of putative COs: formation of 3a upon 2a cleavage (hit or inactive) [1]: positive hits
